Target: the molecule itself
Assay: X-ray crystal structure, homodimer in the asymmetric unit

B1: MvaS (HMG-CoA Synthase) from Enterococcus faecalis, full length with non-cleavable carboxy-terminal six histidine tag, seleno-methionine labeled (enzyme)
chain: MTIGIDKISFFVPPYYIDMTALAEARNVDPGKFHIGIGQDQMAVNPISQDIVTFAANAAEAILTKEDKEAIDMVIVGTESSIDESKAAAVVLHRLMGIQPFARSFEIKEACYGATAGLQLAKNHVALHPDKKVLVVAADIAKYGLNSGGEPTQGAGAVAMLVASEPRILALKEDNVMLTQDIYDFWRPTGHPYPMVDGPLSNETYIQSFAQVWDEHKKRTGLDFADYDALAFHIPYTKMGKKALLAKISDQTEAEQERILARYEESIVYSRRVGNLYTGSLYLGLISLLENATTLTAGNQIGLFSYGSGAVAEFFTGELVAGYQNHLQKETHLALLDNRTELSIAEYEAMFAETLDTDIDQTLEDELKYSISAINNTVRSYRNKGHHHHHH
modifications: seleno-methionine in place of methionine (100% incorporation by MS); observed mass corresponds to protein without N-terminal methionine
notes: It was crystallized as a complex with the small molecule HMG-CoA; There are two MvaS molecules (A and B) in the asymmetric unit, described as a dimer; also called MvaS Ef
  binding result: binds
